Measurements taken from patent WO2009138494A2 (dated 2009).
Substitutions are numbered along the chain they refer to.

T1: recombinant murine TLR2/Fc chimera, R&D Systems cat no: 1530-TR (murine, UniProt Q9QUN7 25-587)
T1 construct: Bought Fc chimera, coated on ELISA plates; also called mTLR2/Fc; mTLR2; not shown: Fc part of the chimera
T1 sequence (looked up): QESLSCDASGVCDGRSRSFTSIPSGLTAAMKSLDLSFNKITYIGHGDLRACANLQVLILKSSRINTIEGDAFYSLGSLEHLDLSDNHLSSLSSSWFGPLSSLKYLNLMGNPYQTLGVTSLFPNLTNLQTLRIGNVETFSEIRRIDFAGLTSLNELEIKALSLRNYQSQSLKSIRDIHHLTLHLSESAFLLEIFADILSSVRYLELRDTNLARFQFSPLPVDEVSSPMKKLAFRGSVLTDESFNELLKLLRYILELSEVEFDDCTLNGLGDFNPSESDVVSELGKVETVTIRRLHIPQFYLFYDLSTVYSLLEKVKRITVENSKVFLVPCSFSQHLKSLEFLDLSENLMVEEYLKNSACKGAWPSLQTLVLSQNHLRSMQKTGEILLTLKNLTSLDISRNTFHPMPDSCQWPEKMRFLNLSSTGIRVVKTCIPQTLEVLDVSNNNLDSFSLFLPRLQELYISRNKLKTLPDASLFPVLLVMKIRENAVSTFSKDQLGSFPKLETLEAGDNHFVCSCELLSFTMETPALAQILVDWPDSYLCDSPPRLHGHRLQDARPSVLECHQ

B1: 133-H9 (VHH)
VHH: EVQLVESGGGLVQPGGSLRLSCAASGSIFSINDMGWFRQAPGKEREHVALIRIKDGSIYYADSVKGRFTISRDNAKNTVYLQMNSLKPEDTAVYYCAAKTGTSFVYWGQGTQVTVSS
notes: not shown: C-terminal c-myc tag and (His)6 tag coded by the vector
B2: 107-H7 (VHH)
VHH: B1 VHH with K87R, A97G
notes: as for B1
B3: 133-E12 (VHH)
VHH: B1 VHH with N32S, K76E, K87R, A97G
notes: as for B1
B4: 133-A1 (VHH)
VHH: EVQLVESGGGLVQAGESLRLSCVASGISISTEVMGWYRQAPGKQGESVAIIKTDGSTYYPDSVKGRFAISRDNAKNTVYLAMNSLKLEDTGVYYCIIAGRGRGQGTQVTVSS
notes: as for B1
B5: 133-H5 (VHH)
VHH: B4 VHH with A24V, E32K, A81Q, L87V, A98T, R100W
notes: as for B1
B6: 133-H4 (VHH)
VHH: B4 VHH with E6K, A81Q, I96V, A98P, R102P
notes: as for B1
B7: 107-H8 (VHH)
VHH: EVQLVESGGGLVQAGGSLRLSCVASRGTLNNNPMAMGWFRRAPGKEREFVASIDWSGRSTYYADSVKGRFTISRDNAKNTVWLQINSLEPEDTSVYFCASRREYYTGISIVESDYPYWGQGTQVTVSS
notes: as for B1
B8: 107-A7 (VHH)
VHH: EVQLVESGGGLVQAGGSLRLSCVASGRTLSTVNMGWFRQAPGKERDIVARISGSSVSTYYAESVRGRFTISRDNAKNTVYLQMNSLRPEDTGVYYCVADSPGGRSYEYWGQGTQVTVSS
notes: as for B1
B9: 107-C12 (VHH)
VHH: B8 VHH with V56I, G92A
notes: as for B1
B10: 107-E9 (VHH)
VHH: B8 VHH with T31S, G53P, R65K
notes: as for B1
B11: 133-H11 (VHH)
VHH: B8 VHH with T28S, V56I, G92A, Y108F
notes: as for B1
B12: 107-G9 (VHH)
VHH: B8 VHH with G53P, A61S, R65K, G92A
notes: as for B1
B13: 107-A9 (VHH)
VHH: B8 VHH with V32Y, V79M, S85N, G92A, S100G
notes: as for B1
B14: 161-C9 (VHH)
VHH: EVQLVESGGGLVQAEGSLRLSCVASGTHVMGWFRQASGKEREFVAAINRSGSTDYPDSADSAKGRFTISRDNAKNTVYLQMTSLKPEDTGVYYCAARKAFYFGTSSYPSDYAYWGQGTQVTVSS
notes: as for B1
B15: 172-C6 (VHH)
VHH: EVQLVESGGGVVQAGGSLSLSCAASGRTLSVYAMGWFRQAPGKEREFVATISVSGVYTYYTDSVKARFTISRDNAKNTVYLQMNSLKPEDTAVYYCAAGSKPTFLGSSYDYWGQGTQVTVSS
notes: as for B1
B16: 161-H4 (VHH)
VHH: EVQLVESGGGLVQAGGSLRLSCAASGRPDSSYFMGWFRQAPGKEFEFVSRINWIGSNTAYADSVKGRFTISRDNAKNTVYLQMNSLKPEDTAVYFCVATTINSFNSGNYKDPRLWTYWAQGTQVTVSS
notes: as for B1
B17: 161-A11 (VHH)
VHH: EVQLVESGGGLVQAEGSLRLSCVASGRTFDTYVMGWFRQAPGKEREFVAAINRSGVTDYPDSATGRFTISRENAKNTVYLQGTSLKPEDTGVYYCAARKAFYYGTSSYPNDYAHWGQGTQVTVSS
notes: as for B1
B18: 161-F4 (VHH)
VHH: EVQLVESGGGLVQPGGSLRLSCAASGSIGSGDAMGWYRQPPGKQRERVATITSGGLTVYTESVKGRFAISRDNAKNTVYLQMNSLKPEDTAVYYCNTVNYRVGWGPGTQVTVSS
notes: as for B1
B19: 172-H4 (VHH)
VHH: EVQLVESGGGLVQAGGSLRLSCAASGRTFDSYAMGWFRQAPGKEREFVAAIGYSGTYDADSVKGRFTISRDNAKKTTVYLQMNNLKPEDTAVYYCAAAGTFSTTVGTTTSHYDYWGQGTQVTVSS
notes: as for B1
B20: 172-F7 (VHH)
VHH: EVQLVESGGGLVQAGGSLRLSCAASGRTFSRYVMGWFRQAPGKEREFVAVINWSGGSTDYSTYVKGRFTIFRDNAKNTVFLEMTSLEPEDTAVYYCAAGEYYTGDSSRYDHWGQGTPVTVSS
notes: as for B1
B21: 172-B7 (VHH)
VHH: B20 VHH with R31S, A49S, W53R, S61A, T62S, Y63S, F71S, F80Y, D105I, H111Y
notes: as for B1
B22: 161-E1 (VHH)
VHH: B20 VHH with V12A, A49S, W53R
notes: as for B1
B23: 172-A12 (VHH)
VHH: B20 VHH with G35S, Y63S, F80Y, M83T, P88L, D105A
notes: as for B1
B24: 172-G3 (VHH)
VHH: B20 VHH with E6K, V33I, W53R, S61A, T62S, Y63S, F71S, F80Y, D105S
notes: as for B1
B25: 172-C1 (VHH)
VHH: EVQLVESGGGLVQAGGSLRLSCAASELAFDFDGYNFAWVRQAPGREREFVSVINRSGGSTDYASSVKGRFTISRDNAKNTVYLQMTSLEPEDTAVYYCAAGPYYTGSSDRYDYWGQGTPVTVSS
notes: as for B1
B26: 161-F2 (VHH)
VHH: EVQLVESGGGLVQAEGSLRLSCVASGPTFDTYVMGWFRQAPGKEREFVAAINRSGSTDYPDYWDSAKGRFTISRDNAKNTVYLQMTSLRPEDTGVYYCAARKTFYFGTSSYPNDYAYWGQGTQVTVSS
notes: as for B1
B27: 161-E2 (VHH)
VHH: EVQLVESGGGLVQAGGSLRLSCAASGRAFSSYVMGWFRQTPGKEREFVSVINWSGGSTDYSSSVKGRFTISRDNAKNTVYLQMTSLEPEDTAVYYCAAGQYYTGRSDRYDYWGQGTPVTVSS
notes: as for B1
B28: 161-H1 (VHH)
VHH: EVQLVESGGGLVQAGGSLRLSCAPSRRTFSTYVMGWFRQAPGMEREFVSAISWSSGSTRYADSVKGRFTISRDSVKNTMYLQMNSLKPEDTAVYYCAAGASFGSIFWESAREYNYWGQGTQVTVSS
notes: as for B1
B29: 172-C9 (VHH)
VHH: EVQLVESGGGLVQAGGSLRLSCAASGRTYSIDSMAWFRQAPGKERQFLGSILWSDDSTNYADSVKGRFTISRDNAKNTMYLQMGSLKPEDTAVYYCRSWDGRQVYWGQGTQVTVSS
notes: as for B1
B30: 172-A1 (VHH)
VHH: EVQLVESGGGLVQAGGSLRLSCTASGRTFSSFVMGWFRQAPGKEREFVAYITLRGGDSPLYADSVKDRFTISRDIAKNLVYLQMNSLKPEDTAVYYCAARYSGGSVYRNDYAYWGQGTQVTVSS
notes: as for B1
B31: 172-B3 (VHH)
VHH: VQLVKSGGGGLVQAGGSLRLSCAASGRTFSRYVMGWFRQAPGKEREFVAVINRSGGSTDYAASVKGRFTIARDNAKNTVYLEMTSLEPEDTAVYYCAAGEYYTGSSSRYDHWGQGTPVTVSS
notes: as for B1
B32: 172-E5 (VHH)
VHH: EVQLVESGGGLVQTGGSLRLSCAASGSTFSNAVMGWFRQAPGKEREFVARITWNGGSTYYGDSAKGRFTISRDNAKTTAYLLMNSLQPEDTANYFCAARMRPVFYSTSGQESFYDYWGQGTQVTVSS
notes: as for B1
B33: 161-A3 (VHH)
VHH: B32 VHH with N31K, N74I, A75G, Y105S, T107S, G109V
notes: as for B1
B34: 172-F11 (VHH)
VHH: B32 VHH with N31R, T58A, F104S, Y105D, T107S
notes: as for B1

target: T2, recombinant human TLR4/MD2 (rhTLR4/MD2), R&D Systems cat no: 3146-TM/CF (human, UniProt O00206 24-631; Q9Y6Y9 17-160, limits assumed); assay: ELISA: TLR coated at 2 ug/ml, periplasmic extract of the clone, anti-VHH detection, OD against no-Nanobody control
T2 construct: Bought protein, coated on ELISA plates
T2 sequence (O00206 24-631 limits assumed, chain 1 of 2): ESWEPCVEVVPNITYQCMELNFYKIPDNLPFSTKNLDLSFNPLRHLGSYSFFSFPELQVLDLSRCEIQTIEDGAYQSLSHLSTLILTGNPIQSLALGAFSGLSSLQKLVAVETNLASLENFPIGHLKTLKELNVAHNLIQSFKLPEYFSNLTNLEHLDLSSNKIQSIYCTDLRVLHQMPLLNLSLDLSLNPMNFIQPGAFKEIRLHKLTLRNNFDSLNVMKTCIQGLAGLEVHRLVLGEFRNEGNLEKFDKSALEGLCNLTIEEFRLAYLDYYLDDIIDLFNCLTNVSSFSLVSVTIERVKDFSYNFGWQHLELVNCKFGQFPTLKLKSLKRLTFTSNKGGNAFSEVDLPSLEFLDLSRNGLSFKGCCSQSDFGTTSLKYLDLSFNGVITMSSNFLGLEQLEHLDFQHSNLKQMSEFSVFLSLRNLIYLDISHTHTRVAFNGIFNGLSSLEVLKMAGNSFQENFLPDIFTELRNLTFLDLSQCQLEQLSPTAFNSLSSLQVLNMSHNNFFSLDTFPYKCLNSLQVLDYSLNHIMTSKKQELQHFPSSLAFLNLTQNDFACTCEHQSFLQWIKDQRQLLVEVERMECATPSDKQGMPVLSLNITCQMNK
T2 sequence (Q9Y6Y9 17-160 limits assumed, chain 2 of 2): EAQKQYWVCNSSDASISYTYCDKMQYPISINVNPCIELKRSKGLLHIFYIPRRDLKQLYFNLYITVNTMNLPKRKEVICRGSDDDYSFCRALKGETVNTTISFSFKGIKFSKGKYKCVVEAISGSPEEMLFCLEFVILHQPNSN

Binding result, binds:
B1
B2
B3
B4
B5
B6
B7
B8
B9
B10
B11
B12
B13

target: T1, recombinant murine TLR2/Fc chimera, R&D …; assay: as above

Binding result, binds:
B14
B15
B16
B17
B18
B19
B20
B21
B22
B23
B24
B25
B26
B27
B28
B29
B30
B31
B32
B33
B34
